In publication PMC7822688, “W196 and the β-Hairpin Motif Modulate the Redox Switch of Conformation and the Biomolecular Interaction Network of the Apoptosis-Inducing Factor” (Oxidative Medicine and Cellular Longevity, 2021):
Values joined by “and” are separate entries in the source; they are usually repeats but may differ in a detail not shown here. Equal entries are not always repeated. “Also recorded” adds a separate entry of the source. Where two headings read alike, the source gives them in different places.

Legend:
dsDNA = test: ITC binary interaction with dsDNA; type: binding; settings: for Kd for DNA higher than WT: hAIFΔ1−101ox, binary complexes; for Kd: oxidized hAIF∆1-101 titrated with 15-bp dsDNA, 25°C, pH 7.4
Protocol: (§1) ITC assays were carried out using an Auto-iTC200 (MicroCal, Malvern-Panalytical, Malvern, UK) thermostated at 25 °C. Typically, […] protein partner and dsDNA samples—prepared as described below—were used to titrate ~10 μM hAIF∆1-101 variants. All solutions were degassed at 15°C for 1 min before each assay. A sequence of 2 μL injections of titrant solution every 150 s was programmed, and the stirring speed was set to 750 rpm. The association constant (Ka), the enthalpy of binding (ΔH), and the binding stoichiometry (N) were estimated through nonlinear least-squares regression of the experimental data employing a single-ligand binding site model implemented in Origin 7.0 (OriginLab, Northampton, MA). The dissociation constant (Kd), the free energy change (ΔG), and the entropy change (ΔS) were obtained from basic thermodynamic relationships.
Since hAIF binds DNA unspecifically, a 0.5 mM dsDNA sample was prepared from 1 mM solutions of HPLC-purified forward and a reverse complementary 15-bp oligonucleotides (5′- GGT TAG TTA TGC GCG -3′; randomly designed) synthetized by Integrated DNA Technologies. The pair of oligonucleotides was mixed at an equimolar ratio and annealed by heating 1 min at 99°C and performing a 3 h temperature scanning from 95 to 25°C, decreasing 1°C each 3 min. 0.5 mM dsDNA stock solutions were obtained.

[1] = Stopped-flow reduction of hAIF∆1-101ox by NADH (hydride transfer); type: biochemical; settings: for k HT/Kd^NADH / k HT / Kd: pre-steady-state, 25°C, pH 7.4; for k HT: hydride transfer from NADH to FAD, aerobic, 50 mM potassium phosphate; for Kd: transient hAIF∆1-101ox:NADH complex, read-out: K d ^NADH
Protocol: A SX18.MV stopped-flow spectrophotometer (Applied Photophysics Ltd., Surrey, UK), interfaced with the ProData-SX software and a photodiode array detector, was used to investigate the fast kinetic reduction of the hAIF variants by the NADH coenzyme. Samples of ~10 μM hAIF∆1-101ox were mixed with increasing concentrations of NADH (0.03-10 mM) under aerobic conditions in 50 mM potassium phosphate, pH 7.4, at 25 °C. The enzyme and NADH concentrations are the final ones obtained after mixing equal volumes of substrate and enzyme. Observed rate constants for the hydride transfer (HT) event (kobs) were calculated by global analysis and numerical integration methods (simultaneously using all spectral data in the 400-800 nm region along time evolution). A single-step model (A→B) best fitted to describe the overall reaction at all NADH concentrations assayed. Averaged kobs values at each NADH concentration were then fitted to the equation that describes the formation of an enzyme:substrate complex prior to the HT event: (3) kobs=kHTNADH/KdNADH+NADH+krev, where kHT is the limiting rate constant for HT from the pyridine nucleotide coenzyme to the FAD cofactor of hAIF, Kd^NADH is the dissociation constant of the transient hAIF∆1-101ox:NADH complex, and krev is the reaction constant for a potential overall reverse process.

[2] = Steady-state DCPIP-dependent diaphorase (NADH oxidase) activity; type: biochemical; settings: for K m ^NADH / k cat: steady-state, NADH donor, 95 μM DCPIP acceptor, 25°C, 50 mM potassium phosphate, pH 7.4 (table footnote); for k cat: n = 3, mean ± SD
Description: […] When saturation profiles on the pyridine nucleotide concentration were observed, kinetic constants were estimated by fitting initial reaction rates at different coenzyme concentrations to the Michaelis-Menten equation: (2) ν/e=kcat NADH/KmNADH+NADH,ν/e=kcat/KmNADHNADH/1+kcat/KmNADHNADH/kcat, where v stands for the initial velocity, e is the enzyme concentration, Km^NADH is the Michaelis constant for the enzyme-NADH complex, kcat is the turnover number of the enzyme, and kcat/Km^NADH is the enzyme catalytic efficiency.

CypA = target: T1, CypA (Homo sapiens, UniProt P62937); test: ITC binary interaction with CypA; type: binding; settings: oxidized hAIF∆1-101 titrated with CypA, 25°C, pH 7.4
T1 construct: His6 (N); made in house; host or cells: E. coli C41 (DE3)
T1 sequence (P62937 whole entry): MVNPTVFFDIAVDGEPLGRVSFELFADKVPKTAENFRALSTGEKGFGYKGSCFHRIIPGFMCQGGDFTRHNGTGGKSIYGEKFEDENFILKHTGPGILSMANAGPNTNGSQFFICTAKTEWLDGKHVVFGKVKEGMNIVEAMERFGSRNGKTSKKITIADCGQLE
Protocol: as §1

[3] = for T m CTC ^FAD − Tm^FAD: CTC state relative to oxidized state of the same variant; for ΔTm^FAD: variant relative to WT; for T m ^FAD: ~2 μM protein, 50 mM potassium phosphate; for ΔTm CTC^FAD: CTC state, variant relative to WT CTC
Protocol: Thermal denaturation curves were followed by changes in the FAD fluorescence emission upon its release from the protein by sample excitation at 450 nm. Curves were monitored from 10 °C to 90 °C with scan rates of 1°C/min, both in the absence and presence of a 100-fold excess of NADH. The curves for each variant were roughly normalized to values between 0 and 1 and globally fitted to a two-step process describing a single transition unfolding equilibrium (native (N)↔unfolded (U)) by using the following equation [23]: (1) Sobs=SN+mNT+SU+mUTe^−ΔG/RT/1+e^−ΔG/RT, in which Sobs is the measured protein signal at a given temperature (T). SN and SU are intercept at 0 K with the y-axis of the linear extrapolation for the native and unfolded pre- and posttransition regions, respectively, while mN and mU are the corresponding slopes. The stabilization Gibbs energy depends on temperature according to ΔG = ΔH(1 − 1/Tm) + ΔCP(T − Tm − Tln(T/Tm)), where ΔH is the unfolding enthalpy, Tm is the midtransition temperature, ΔCP is the unfolding heat capacity change, and R is the ideal gas constant.

[4] = Stopped-flow CTC formation on mixing photoreduced hAIF∆1-101 with NAD+; type: biochemical; settings: for k CTC: hAIF∆1-101phrd variants mixed with NAD+; for k CTC / k CTC/Kd^NAD+ / Kd: anaerobic, 25°C, pH 7.4; for k CTC/Kd^NAD+: hAIF∆1-101phrd variants; for Kd: transient hAIF∆1-101phrd:NAD+ complex, read-out: K d ^NAD+
Protocol: Stopped-flow spectrophotometry was also used to evaluate the rate constants of CTC formation when mixing photoreduced hAIF∆1-101 (hAIF∆1-101phrd) with increasing concentrations of NAD^+ (0.125-5 mM) under anaerobic conditions. hAIF∆1-101phrd samples were obtained by photoreduction in the presence of 5 μM methyl viologen, 3 μM 5-deazariboflavin, and 20 mM EDTA. The assays were performed at 25 °C in 50 mM potassium phosphate, pH 7.4, under anaerobic conditions (obtained by several cycles of vacuum application and bubbling with O2 free argon). Data were global fitted to a single step model (A→B), and kobs were determined at the different NAD^+ concentrations assayed. These values were then fitted to the equation that describes the formation of a transient hAIF∆1-101phrd:NAD^+ complex prior to the CTC stabilization: (4) kobs=kCTCNAD^+/KdNAD++NAD^+, in which kCTC is the limiting rate constant for the rearrangement of the encounter complex to form the CTC, and Kd^NAD+ is the dissociation constant for the mentioned transient encounter complex.

CHCHD4 = target: T2, CHCHD4 (Homo sapiens, UniProt Q8N4Q1); test: ITC binary interaction with CHCHD4; type: binding; settings: for Kd / ΔG / ΔH / -TΔS: 25°C, pH 7.4
T2 construct: His6 (N); made in house; host or cells: E. coli C41 (DE3)
T2 sequence (Q8N4Q1 1-142): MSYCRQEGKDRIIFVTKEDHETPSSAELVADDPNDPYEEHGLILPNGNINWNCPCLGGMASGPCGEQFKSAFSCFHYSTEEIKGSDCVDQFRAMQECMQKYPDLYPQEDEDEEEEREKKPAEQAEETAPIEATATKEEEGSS
Protocol: as §1

[5] = Reactivity of the CTC towards molecular oxygen (CTC half-life); type: biochemical; settings: 25°C, air saturated 50 mM potassium phosphate, pH 7.4
Protocol: The reactivity of the CTC towards molecular oxygen was monitored by full reduction of hAIF∆1-101 samples with NADH (1.5-fold the concentration of the protein) in 50 mM phosphate buffer, pH 7.4, and following their reoxidation in a Cary 100 spectrophotometer (Agilent, Santa Clara, CA). Absorption spectra were recorded at 25 °C until full oxidation of the flavin cofactor was achieved. For each time, the percent remaining of CTC versus reoxidation by molecular oxygen was estimated as ΔAt/ΔAmax, where ΔAmax is the difference between the minimum and the maximum absorbance at 700 nm, and ΔAt is the difference of each value at 700nm minus the minimum absorbance at 700 nm. The CTC half-life is the time at which 50% of CTC still remains.

[6] = steady-state DCPIP diaphorase reaction
[7] = CTC hAIF∆1-101rd:NAD^+, 100-fold excess NADH
[8] = CTC hAIF∆1-101rd:NAD^+, 100-fold excess NADH, pH 7.4, ionic strength 150 mM
[9] = hAIF∆1-101ox, pH 7.4, ionic strength 150 mM
[10] = CTC form (premixed with NADH 1:100) titrated with CHCHD4, ITC, read-out: K d
[11] = CTC form titrated with CHCHD4, ITC
[12] = oxidized hAIF∆1-101 titrated with CHCHD4, ITC

Kd (dsDNA) [µM]	k HT/Kd^NADH [1] [M⁻¹ s⁻¹]	Kd [1] [µM]	-TΔS (CypA) [kcal/mol]	ΔG (CypA) [kcal/mol]	ΔH (CypA) [kcal/mol]	k CTC/Kd^NAD+ [4] [M⁻¹ s⁻¹]	Kd [4] [µM]	Substance	k HT [1] [s⁻¹]	increase in turnover rate relative to WT [2, 6]	K m ^NADH [2] [µM]	k cat [2] [s⁻¹]	ΔH (unfolding enthalpy) [3, 7] [kcal/mol]	T m CTC ^FAD [3, 8] [K]	T m CTC ^FAD − Tm^FAD [3] [K]	ΔH (unfolding enthalpy) [3, 9] [kcal/mol]	ΔTm^FAD ([3]; hAIF∆1-101ox) [K]	T m ^FAD [3, 9] [K]	k CTC [4] [s⁻¹]	CTC half-life versus reoxidation by O2 [5] [min]	further results
5.8	117000 ± 5300	1070 ± 40	-34.9	-7.6	27.3	76000 ± 10000	394 ± 50	W196A: W196A site-directed mutant of hAIF∆1-101; ox = oxidized, CTC = charge transfer complex with NAD+	126 ± 1	~ 5 fold	25 ± 4	4.3 ± 0.2	170 ± 4	326 ± 1	0	103 ± 3	−11 ± 2	326 ± 1	30 ± 1	62	Kd for DNA higher than WT (dsDNA): ~ 4 fold; higher affinity for the NADH substrate relative to WT ([1]; stopped-flow, NADH): ~ 5 fold; decrease in Kd^NAD+ relative to WT ([4]; hAIF∆1-101phrd with NAD+): ~ 5 fold; Kd (CHCHD4; [10]): 0.5 µM; ΔG (CHCHD4; [11]): -8.3 kcal/mol; ΔH (CHCHD4; [11]): -5.9 kcal/mol; Kd (CHCHD4; oxidized hAIF∆1-101 titrated with CHCHD4, ITC, 50 mM potassium phosphate, listed as W196Aox, read-out: K d): ~0.4 µM and 0.4 µM; -TΔS (CHCHD4; [12]): -18.0 kcal/mol; ΔG (CHCHD4; [12]): -8.4 kcal/mol; ΔH (CHCHD4; [12]): 9.6 kcal/mol
	21000 ± 3000	1720 ± 210				67000 ± 18000	433 ± 11	W196L: W196L site-directed mutant of hAIF∆1-101	36 ± 1	~ 3 fold	187 ± 18	2.8 ± 0.1	159 ± 4	324 ± 1	−2 ± 2	118 ± 3	−11 ± 2	326 ± 1	29 ± 2	32	decrease in Km^NADH relative to WT [2, 6]: ~ 3 fold; efficiency oxidizing NADH relative to WT [2, 6]: ~ 8 times; ΔTm CTC^FAD [3]: 0 K; decrease in Kd^NAD+ relative to WT ([4]; hAIF∆1-101phrd with NAD+): ~ 5 fold
1.6	400 ± 100	4090 ± 300	17.2	-7.3	-24.5	22000 ± 3000	2080 ± 250	WT: wild-type human apoptosis-inducing factor, soluble form hAIF∆1-101 (UniProtKB O95831); ox = oxidized, CTC = NADH-reduced charge transfer complex	1.5 ± 0.1		495 ± 170	0.9 ± 0.1	150 ± 4	324 ± 1	−13 ± 2	128 ± 3		337 ± 1	45 ± 2	72	Kd (CHCHD4; [10]): 0.2 µM; -TΔS (CHCHD4; [11]): 11.4 kcal/mol; ΔG (CHCHD4; [11]): -8.7 kcal/mol; ΔH (CHCHD4; [11]): -20.1 kcal/mol; Kd (CHCHD4; oxidized hAIF∆1-101 titrated with CHCHD4, ITC, 50 mM potassium phosphate, listed as WTox): heat exchange was not observed; also recorded: No detected binding
6.9	4000 ± 800	2870 ± 320	-24.9	-7.9	17.0	87000 ± 14000	183 ± 27	W196Y: W196Y site-directed mutant of hAIF∆1-101; ox = oxidized, CTC = charge transfer complex with NAD+	12 ± 1	~ 3 fold	505 ± 35	2.7 ± 0.1	167 ± 4	323 ± 1	−6 ± 2	123 ± 3	−8 ± 2	329 ± 1	16 ± 1	42	Kd for DNA higher than WT (dsDNA): ~ 4 fold; efficiency as hydride acceptor from NADH relative to WT ([1]; stopped-flow, NADH): ~ 12 fold; efficiency oxidizing NADH relative to WT [2, 6]: ~ 3 times; ΔTm CTC^FAD [3]: −1 ± 2 K; decrease in Kd^NAD+ relative to WT ([4]; hAIF∆1-101phrd with NAD+): ~ 11 fold; decrease in kCTC relative to WT ([4]; hAIF∆1-101phrd with NAD+): less than 3 fold; Kd (CHCHD4; [10]): 2.1 µM; -TΔS (CHCHD4; [11]): 0.7 kcal/mol; ΔG (CHCHD4; [11]): -7.5 kcal/mol; ΔH (CHCHD4; [11]): -8.2 kcal/mol; Kd for CHCHD4 higher relative to WT CTC (CHCHD4; CTC form, ITC): ~ 10 fold; Kd (CHCHD4; oxidized hAIF∆1-101 titrated with CHCHD4, ITC, 50 mM potassium phosphate, listed as W196Yox): heat exchange was not observed; also recorded: No detected binding
